Among the data in publication doi:10.1101/2024.01.23.576883 (bioRxiv, 2024) are binding result and stoichiometry N values, retold here.

Data set [1] concerns the molecule itself. The experiment in a line: microfluidic diffusional sizing.
The target of data set [2] is T1, FUS-mscarlet3, released from MBP-FUS-mscarlet3-His6 by TEV protease (UniProt P35637 1-526).
T1 sequence: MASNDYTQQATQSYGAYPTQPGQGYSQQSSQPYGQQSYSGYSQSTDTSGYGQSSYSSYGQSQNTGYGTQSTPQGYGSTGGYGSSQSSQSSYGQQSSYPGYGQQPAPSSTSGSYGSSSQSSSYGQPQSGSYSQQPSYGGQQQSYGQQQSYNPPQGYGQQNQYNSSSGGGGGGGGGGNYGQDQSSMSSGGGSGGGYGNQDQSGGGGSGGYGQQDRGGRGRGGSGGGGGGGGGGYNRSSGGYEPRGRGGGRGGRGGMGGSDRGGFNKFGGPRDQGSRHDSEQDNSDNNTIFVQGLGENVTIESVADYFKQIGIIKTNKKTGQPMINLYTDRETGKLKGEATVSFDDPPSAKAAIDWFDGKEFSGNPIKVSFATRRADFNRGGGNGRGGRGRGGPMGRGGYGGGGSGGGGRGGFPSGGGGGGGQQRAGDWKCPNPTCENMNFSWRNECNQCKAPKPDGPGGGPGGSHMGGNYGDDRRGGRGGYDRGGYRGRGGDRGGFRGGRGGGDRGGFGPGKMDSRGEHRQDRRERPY
The experiment in a line: fluorescence polarisation. For orientation: Polarisation of emitted light reports the rotation of a fluorescent probe.

For data set [3], the target named is T2, HspB6-meGFP-His6 (human), O14558.
T2 chain: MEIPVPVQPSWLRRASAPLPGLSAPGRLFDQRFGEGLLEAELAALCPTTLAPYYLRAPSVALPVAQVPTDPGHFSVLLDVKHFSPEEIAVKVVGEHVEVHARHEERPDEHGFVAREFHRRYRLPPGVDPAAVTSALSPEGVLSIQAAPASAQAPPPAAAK
Put plainly: microfluidic diffusional sizing. The note with it: remark: other sources report otherwise.

B1: HspB5-meGFP-His6 (natural protein)
chain: MDIAIHHPWIRRPFFPFHSPSRLFDQFFGEHLLESDLFPTSTSLSPFYLRPPSFLRAPSWFDTGLSEMRLEKDRFSVNLDVKHFSPEELKVKVLGDVIEVHGKHEERQDEHGFISREFHRKYRIPADVDPLTITSSLSSDGVLTVNGPRKQVSGPERTIPITREEKPAVTAAPKK
Turning to B1, the binding result in data set [1] is recorded as “binds”.

B2: HspB4-meGFP-His6 (natural protein)
chain: MDVTIQHPWFKRTLGPFYPSRLFDQFFGEGLFEYDLLPFLSSTISPYYRQSLFRTVLDSGISEVRSDRDKFVIFLDVKHFSPEDLTVKVQDDFVEIHGKHNERQDDHGYISREFHRRYRLPSNVDQSALSCSLSADGMLTFCGPKIQTGLDATHAERAIPVSREEKPTSAPSS
As for B2, the binding result in data set [2] is reported as “binds”.

B3: HspB6-meGFP-His6, O14558 1-160 (natural protein)
chain: T2 chain
B3: the stoichiometry N in data set [3] stood at 2.

In general, stoichiometry N refers to a count of units in the complex or per binding partner.
